We go through 5 substances from patent publication US20040082509.

For the data set, the system named is T1, L-JBD20 peptide (20 amino acid minimal JNK-inhibitory sequence of JIP-IB1).
T1 sequence: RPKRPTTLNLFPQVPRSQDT

For the substance caK, the “caK kinase activity (substrate caseine) at the tested peptide concentration” value was 500 µM of the JBD20 peptides did not interfere with the activity of 6 particular kinases: ERK2, p38, pKC, p34, caK and pKA.
Consider p34, for which the “p34 kinase activity (substrate histone) at the tested peptide concentration” value is 500 µM of the JBD20 peptides did not interfere with the activity of 6 particular kinases: ERK2, p38, pKC, p34, caK and pKA.
For p38, the “p38 kinase activity (substrate ATF2) at the tested peptide concentration” value was 500 µM of the JBD20 peptides did not interfere with the activity of 6 particular kinases: ERK2, p38, pKC, p34, caK and pKA.
With pKA, the “pKA kinase activity (substrate histone) at the tested peptide concentration” value is 500 µM of the JBD20 peptides did not interfere with the activity of 6 particular kinases: ERK2, p38, pKC, p34, caK and pKA.
pKC: the “pKC kinase activity (substrate histone) at the tested peptide concentration” value is 500 µM of the JBD20 peptides did not interfere with the activity of 6 particular kinases: ERK2, p38, pKC, p34, caK and pKA.
